Laboratory results published in patent EP0132021B1, “TGF polypeptides, antigenic oligopeptides derived therefrom and antibodies produced therefrom” (Todaro, George Joseph, priority 1983, dated 1985).

Key:
[1] = target: T1, tyrosine-specific protein kinase (Homo sapiens, UniProt P00533); experiment: Stimulation of tyrosine-specific protein kinase (phosphorylation of synthetic angiotensinyl peptide substrate); type: biochemical
T1 construct: endogenous in cells; host or cells: human tumor cell membranes (said in the general description, not in the assay sentence)
Text: A consequence of TGF or EGF binding to the EGF membrane receptors is the stimulation of phosphorylation of tyrosine residues of synthetic peptides or endogenous substrates (Pike et al. (1982) J. Biol. Chem. 257, pp. 14628-14631).

[2] = target: T2, EGF receptor sites on A431 human carcinoma cells (Homo sapiens, UniProt P00533); experiment: 125I-EGF radioreceptor (binding competition) assay on formalin-fixed A431 cells
T2 construct: Human epidermoid A431 cells have in excess of 10⁶ EGF receptors per cell; endogenous in cells; host or cells: A431 human epidermoid carcinoma cells (formalin-fixed in A1)
Method: Purified EGF was labeled with Na¹²⁵I by a modification of the chloramine-T method as described in DeLarco et al. (1978) Proc. Natl. Acad. Sci. USA 75, pp. 4001-4005. The ¹²⁵I-EGF binding assay was performed on subconfluent monolayers of formalin-fixed A431 human carcinoma cells as previously described (in DeLarco et al. (1980) J. of Biol. Chem. 255, pp. 3685-3690). The fixed cells were washed twice with 0.5 ml of binding buffer (Dulbecco's modified Eagle's medium containing 1 mg/ml of bovine serum albumin and 50 mM 2-[bis(2-hydroxyethyl)amino]ethanesulfonic acid, pH 6.8). Competitions were initiated by the addition of 0.2 ml of binding buffer containing 0.4 ng of ¹²⁵I-EGF with or without potential inhibitor. After incubation for 1 h at 22°C, the specifically bound ¹²⁵I-EGF was determined. The TGF content was expressed by its degree of inhibition of the binding of ¹²⁵I-EGF to the EGF receptor. One EGF-competing activity unit is defined as the amount of protein that inhibits the binding of ¹²⁵I-EGF to its receptor by 50%.
TGF was quantitated in a radioreceptor assay based on receptor crossreactivity with mouse submaxillary gland epidermal growth factor (mEGF). […]

NRK cells = experiment: Soft agar transforming assay with fetal bovine serum and TGF-beta; type: cell-based, rat; conditions: in the absence of TGF-beta
Text: Synthetic rTGF prepared in accordance with this Example was compared with natural rTGF in three assays for biological properties of the putative transforming growth factor.

[3] = after oxidation and regeneration, prior to purification

Substance	tyrosine-specific protein kinase activity when compared to the natural rTGF-I [1, 3]	EGF-radioreceptor activity when compared to the natural rTGF-I [2, 3]	EC50 ([1]; read-out: half maximal activity, stimulation of phosphorylation of the synthetic angiotensinyl peptide substrate) [nM]	IC50 ([2]; A431 human carcinoma cells, read-out: concentration required for 50% inhibition of 125I-EGF binding) [nM]	transformation of NRK cells in culture (NRK cells)
regenerated, crude rTGF-I: crude synthetic rTGF oxidized and regenerated by the mixed disulfide method, prior to any purification	40-50%	40-50%			
synthetic rTGF: rat TGF made by stepwise solid-phase chemical synthesis, oxidized and purified to homogeneity			0.3	4.1	does not produce such an effect
